Variants at the floor of the assay were thinned out.
What was measured:
biotinyl-Phe-oxazolone = experiment: self-aminoacylation, catalytic enhancement (BFO) (fold over background); higher = more active; k-Seq, kA / k0A0; sequences stand for … in GGGAAUGGAUCCACAUCUACGAAUUC…UUCACUGCAGACUUGACGAAGCUG
Summary of the method: (§1)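 Catalytic enhancement equals the median kA over the uncatalyzed rate, the latter read from the low-activity peak of a bimodal Gaussian fit. Values of kA came from fitting each sequence's fraction reacted to a pseudo-first-order model, with 1000 bootstraps. Reacted RNA was captured with streptavidin and quantified by triplicate qPCR and Illumina sequencing after 90 minutes at room temperature with 2–1250 μM biotinyl-aminoacyl-oxazolone and 0.43 μM mutagenized RNA pools bearing a 21-nt variable region.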

biotinyl-Ile-oxazolone = experiment: self-aminoacylation, catalytic enhancement (BIO) (fold over background); higher = more active; k-Seq, kA / k0A0; sequences stand for … in GGGAAUGGAUCCACAUCUACGAAUUC…UUCACUGCAGACUUGACGAAGCUG
Summary of the method: as §1

biotinyl-Met-oxazolone = experiment: self-aminoacylation, catalytic enhancement (BMO) (fold over background); higher = more active; k-Seq, kA / k0A0; sequences stand for … in GGGAAUGGAUCCACAUCUACGAAUUC…UUCACUGCAGACUUGACGAAGCUG
Summary of the method: as §1

biotinyl-Val-oxazolone = experiment: self-aminoacylation, catalytic enhancement (BVO) (fold over background); higher = more active; k-Seq, kA / k0A0; sequences stand for … in GGGAAUGGAUCCACAUCUACGAAUUC…UUCACUGCAGACUUGACGAAGCUG
Summary of the method: as §1

biotinyl-Leu-oxazolone = experiment: self-aminoacylation, catalytic enhancement (BLO) (fold over background); higher = more active; k-Seq, kA / k0A0; sequences stand for … in GGGAAUGGAUCCACAUCUACGAAUUC…UUCACUGCAGACUUGACGAAGCUG
Summary of the method: as §1

biotinyl-Trp-oxazolone = experiment: self-aminoacylation, catalytic enhancement (BWO) (fold over background); higher = more active; k-Seq, kA / k0A0; sequences stand for … in GGGAAUGGAUCCACAUCUACGAAUUC…UUCACUGCAGACUUGACGAAGCUG
Summary of the method: as §1

Sequence	self-aminoacylation (biotinyl-Phe-oxazolone)	self-aminoacylation (biotinyl-Ile-oxazolone)	self-aminoacylation (biotinyl-Met-oxazolone)	self-aminoacylation (biotinyl-Val-oxazolone)	self-aminoacylation (biotinyl-Leu-oxazolone)	self-aminoacylation (biotinyl-Trp-oxazolone)
AUUCACCAAGGUCGUCGGGUG [Fam2.2 aminoacylation ribozyme variant]	12.9	2.09	2.2	2.58	3.05	2.29
AUUCACCCAAGUCAUCGGGUG [Fam2.2 aminoacylation ribozyme variant]	92.9	5.59	11	5.86	14.8	10.1
AUUCACCCAGAUCAUCGGGUG [Fam2.2 aminoacylation ribozyme variant]	7.26	1.85	1.82	2.26	2.43	1.84
AUUCACCCAGGCCAUCGGGUG [Fam2.2 aminoacylation ribozyme variant]	34.1	3.35	3.79	3.7	6.14	5.24
AUUCACCCAGGUCACCGGGUG [Fam2.2 aminoacylation ribozyme variant]	39.4	3.47	5.66	3.77	5.75	4.89
AUUCACCCAGGUCAGCGGGUG [Fam2.2 aminoacylation ribozyme variant]	18.4	2.93	3.76	2.73	5.61	4.34
AUUCACCCAGGUCAUCGGGCG [Fam2.2 aminoacylation ribozyme variant]	18	2.72	3.77	2.62	4.5	2.97
AUUCACCCAGGUCAUCGGGUC [Fam2.2 aminoacylation ribozyme variant]	6.42	1.14	1.5	1.88	1.92	1.39
AUUCACCCAGGUCAUUGGGUG [Fam2.2 aminoacylation ribozyme variant]	23.8	2.31	3.36	2.52	4.11	3.71
AUUCACCCAGGUCCUCGGGUG [Fam2.2 aminoacylation ribozyme variant]	35.5	3.22	5.45	3.89	6.67	5.85
AUUCACCCAUGUCAUCGGGUG [Fam2.2 aminoacylation ribozyme variant]	46.4	3.72	6.58	3.15	7.33	5.22
AUUCACCGAGGUCACCGGGUG [Fam2.2 aminoacylation ribozyme variant]	74.9	6.91	9.61	5.88	10.8	8.69
AUUCACCGAGGUCAUCGCGUG [Fam2.2 aminoacylation ribozyme variant]	117	7.64	16	9.71	19.1	14.8
AUUCACCGAGGUCAUCGGGGG [Fam2.2 aminoacylation ribozyme variant]	7.01	2.59	2.95	2.71	2.65	3.16
AUUCACCGAGGUCAUCUGGUG [Fam2.2 aminoacylation ribozyme variant]	34.6	2.39	4.31	2.69	5.72	3.61
AUUCACCGAGGUCAUGGGGUG [Fam2.2 aminoacylation ribozyme variant]	86.3	6.15	11.4	6.55	14.7	11.4
AUUCACCGCGGUCAUCGGGUG [Fam2.2 aminoacylation ribozyme variant]	59.7	4.65	7.49	5.04	8.56	7.69
AUUCACCUAAGUCAGCGGGUG [Fam2.2 aminoacylation ribozyme variant]	25	3.01	3.78	2.88	5.01	2.8
AUUCACCUAAGUCUUCGGGUG [Fam2.2 aminoacylation ribozyme variant]	33.4	3.49	4.98	3.85	6.66	5.42
AUUCACCUACGCCAUCGGGUG [Fam2.2 aminoacylation ribozyme variant]	21.9	2.1	3.6	2.11	4.34	3.52
AUUCACCUACGUCAUCGAGUG [Fam2.2 aminoacylation ribozyme variant]	12.5	2.45	4.25	2.71	4.08	3.77
AUUCACCUACGUCAUCGGGCG [Fam2.2 aminoacylation ribozyme variant]	16.3	2.62	3.42	2.97	3.26	2.75
AUUCACCUACGUCAUCGUGUG [Fam2.2 aminoacylation ribozyme variant]	0.74	0.632	0.602	0.818	0.86	0.425
AUUCACCUACGUCAUGGGGUG [Fam2.2 aminoacylation ribozyme variant]	11	1.79	2.5	2.01	2.62	1.67
AUUCACCUACGUCCUCGGGUG [Fam2.2 aminoacylation ribozyme variant]	33.2	2.7	4.71	2.12	7.17	4.21
AUUCACCUACGUCUUCGGGUG [Fam2.2 aminoacylation ribozyme variant]	24	2.44	3.36	2.81	4.28	3.34

Sequence	self-aminoacylation (biotinyl-Phe-oxazolone)	self-aminoacylation (biotinyl-Ile-oxazolone)	self-aminoacylation (biotinyl-Met-oxazolone)	self-aminoacylation (biotinyl-Val-oxazolone)	self-aminoacylation (biotinyl-Leu-oxazolone)	self-aminoacylation (biotinyl-Trp-oxazolone)
AUUCACCUAGAUCAUUGGGUG [Fam2.2 aminoacylation ribozyme variant]	18	2.15	3.71	1.91	3.94	3.54
AUUCACCUAGCUCAUCGGGUA [Fam2.2 aminoacylation ribozyme variant]	11.2	2.08	2.03	2.54	2.41	2.53
AUUCACCUAGGCCAACGGGUG [Fam2.2 aminoacylation ribozyme variant]	14.5	2.23	2.61	2.04	4.01	3.02
AUUCACCUAGGCCACCGGGUG [Fam2.2 aminoacylation ribozyme variant]	13.6	3.83	5.04	3.27	6.51	4.16
AUUCACCUAGGCCAGCGGGUG [Fam2.2 aminoacylation ribozyme variant]	24.8	3.59	4.21	4.07	4.78	3.78
AUUCACCUAGGCCAUCGGGCG [Fam2.2 aminoacylation ribozyme variant]	15.5	2.65	3.01	3.17	3.11	5.38
AUUCACCUAGGCCAUCGGUUG [Fam2.2 aminoacylation ribozyme variant]	8.73	1.08	1.05	1.04	1.32	0.695
AUUCACCUAGGGCACCGGGUG [Fam2.2 aminoacylation ribozyme variant]	23.3	3.58	4.01	3.88	4.66	3.62
AUUCACCUAGGGCAUCGGGUU [Fam2.2 aminoacylation ribozyme variant]	5.04	1.91	2.08	2.01	2.37	2.78
AUUCACCUAGGGCAUCGGUUG [Fam2.2 aminoacylation ribozyme variant]	0.577	1.02	1.05	0.969	1.12	0.909
AUUCACCUAGGGUAUCGGGUG [Fam2.2 aminoacylation ribozyme variant]	50.9	3.84	6.75	3.99	8.63	6.31
AUUCACCUAGGUAAUCGCGUG [Fam2.2 aminoacylation ribozyme variant]	16.1	1.75	2.51	2.15	2.8	2.74
AUUCACCUAGGUAAUCGGAUG [Fam2.2 aminoacylation ribozyme variant]	0.527	0.61	0.585	0.524	0.546	0.594
AUUCACCUAGGUAAUCGGCUG [Fam2.2 aminoacylation ribozyme variant]	0.486	0.944	1.23	1.02	1.31	1.2
AUUCACCUAGGUAAUCGGGUU [Fam2.2 aminoacylation ribozyme variant]	0.331	0.997	1.09	1.16	1.17	0.977
AUUCACCUAGGUAAUUGGGUG [Fam2.2 aminoacylation ribozyme variant]	32.1	2.94	4.54	2.63	6.35	4.01
AUUCACCUAGGUCAACGGGGG [Fam2.2 aminoacylation ribozyme variant]	12.7	1.75	1.83	1.84	2.19	2.31
AUUCACCUAGGUCAACGGUUG [Fam2.2 aminoacylation ribozyme variant]	1.03	0.852	0.808	0.808	0.71	0.94
AUUCACCUAGGUCAGCGGGCG [Fam2.2 aminoacylation ribozyme variant]	27	5.22	5.27	5.42	7.99	4.44
AUUCACCUAGGUCAGCGGGGG [Fam2.2 aminoacylation ribozyme variant]	27.6	4.35	5.1	3.43	5.24	5.24
AUUCACCUAGGUCAGGGGGUG [Fam2.2 aminoacylation ribozyme variant]	13.9	1.78	2.67	1.8	3.4	2.55
AUUCACCUAGGUCAUACGGUG [Fam2.2 aminoacylation ribozyme variant]	55.7	4.38	7.59	4.41	10.3	6.75
AUUCACCUAGGUCAUAGAGUG [Fam2.2 aminoacylation ribozyme variant]	10.1	2.23	2.98	2.08	3.92	2.12
AUUCACCUAGGUCAUAGCGUG [Fam2.2 aminoacylation ribozyme variant]	17.1	2.46	3.36	2.15	4.63	3.55
AUUCACCUAGGUCAUAGGGUG [Fam2.2 aminoacylation ribozyme variant]	2.06	1.39	1.75	1.35	2.06	1.49
